Test results reported in the DeepSol protein solubility set.

experiment: soluble on expression in E. coli; label from the status in PepcDB or PDB records

| Sequence | soluble on expression in E. coli |
| --- | --- |
| MGVMNTGETLDEKAIVASAEKALSDIAAIRTEVSKVIFGQEKVVQNTLLAILSGGHALLVGVPGLAKTKLVTTLGTVLGLDANRIQFTPDLMPSDILGSEVMDQDENGRRSFRFIKGPIFGQLLMADEINRASPRTQSALLQAMQEYHITMAGQTYELPKPFHVLATQNPLEQEGTYPLPEAQLDRFLLQVDVDYPELAAERQILLDTTGTASGEARPVIGAERLMEIQALIRQMPVSDKVVDAILSLVRSARPGHGNKLTDKNVVWGPGPRAGQSLMLTARARALYEGRLAPSLDDVHALAEPVLEHRMALTFAARAEGMSVRDVIAALVEQAKN | not soluble |
| MMSMKIFETTAPHPEASLLTAFSKNALDRFAEKRTEECVAEALKVDGTHIFAFSGNRLVLKHDEQVIDPLFSAYELAELQPDFDNAVLLGYRETGEPRIAVPVAVAEDQLASHYKLADARTLYRDHLLDEELLSEVAQAVSLTHWNADNRFCGRCGGTMEQRIGGYKRICASCSHTIFPRTDPVVIMMTIDIERDLCLLGRGAHFASGMYSCLAGFVEPGETIEQAVRRETHEESGVEIGRVRYHASQPWPMPHTLMIGCYAEALSSDIARDEIELEDCRWFTREEVAKMLEAPAGEGFSAPPIGAIAHRLMRDWVEWPE | soluble |
| MSGKEEFQTIKERAKRKLERDMGADLLAALNDPKTVEVMLNADGKVWHERLGEPMRYICDMRPSQSQAIIETVAGFHGKEVTRHSPILEGEFPLDGSRFAGQLPPVVAAPTFAIRKRAVAIFTLEQYVEAGIMTREQYEVIKSAVAAHRNILVIGGTGSGKTTLVNAIINEMVAFNPSERVVIIEDTGEIQCAAENAVQYHTSIDVSMTLLLKTTLRMRPDRILVGEVRGPEALDLLMAWNTGHEGGAATLHANNPKAGLSRLAMLISMHPDSPKPIEPLIGEAVHVVVHIARTPSGRRVQEILEVLGYENGQYITKTL | not soluble |
| MGSDKIHHHHHHMNNKEIFEELATLARQPAIWFAARSFYGHGGNQRPDNSRRLLRVLAETDNNLTAGAIADILAIRPASVTQIIKKLENDEYIQRVRDESDARVVRVKITSKGRKQLELLEDKQSDFQTELFDVFDDDERQRFGESLRKLNEHVMSDEYLDNMRSKMDKHMRFGFDHFVNVSNARKFHENQTGYLKKMRQHQQQSPFNDEDNEGI | not soluble |
| DMIVRQAGPADAAAMSAVLHPILTGWNSARSGDAETVLTRYIDDPDRLSCAVACEGERILGFQSLKLARAGNVYDLPAGWGIIGTYVAGDAGRRGIGRALFTETLAAARRAGLAHIDATIGADNAQGLPYYSALGFQTWRELDG | not soluble |
| MLNIIRAGIYTSVQDSGRHGFRQSGLSHCGALDKPAFQTANLLVGNDANAPALEITLGQLVVEFENETWFALTGAGCEAQLDDQPVWTGWRLPVKAGQRLTLHRPLHGMRSYLAVAGGIAVPEVMGSYSTDLKSGIGGLEGRLLKDGDRLATGKPSRQFSGPQGVKQLLWGNRIRALPGPEYREFDRASQEAFWRSPWQLSPQSNRMGYRLQGQSLTRTTDRELLSHGLLPGVVQVPYNGQPIVLMNDAQTTGGYPRIACIIEADMYHLAQIPLGQPIHFVQCSLEEALNARRERQRYLEQLTWRLQHEHLEHHHHHH | not soluble |
| GPGSMGYRLLRDNVFKASCAKDSDELRARREPTMLYKEDQLVAPASGTERRYTLVLDLDETVIYAREGPLYARAYLKELLSFIRKNFEVIVWTAGEREYAECILEEINIRNTVRHLIHRHKTWFSFDDYTKDLTKLGRNLDYVIIIENSPDCVRTNPQNGIIVDDFRVSQTPPMEEAEAAWEGDGNNRERKAGSRSDSKTRRQVTDRTLLLLREVLKAMVESGETVPDFLAKCPLLTQRRVIGSDGSQIQTYHLGTRRKRGIPQLCASSPKRRRVTKESAPGATCTS | soluble |
| MGSDKIHHHHHHMTLQQLRQVLTIAESNSMNEAAKKLFVSQPNLSATVREVEEELGITVFMRNNRGITVTAEGEEFLGYAKQVVEQYHLLENRYLNVESKKKFSVSMQHYSFAVKAFVQLAKEVGMDEYEFAVHETKTKEVIDNVKNLKSEIGVLYLSDFNEKVLRKLFKECDIEFKELFTCNTYVYLWKKHPLAGQKEITLDDLQEYPCLTFEQGVNNSFYYAEEMMSTYEYKRVIKADDRATMLNLMVGLNGFTLCSGIISEDLNGDDYAAIPLKESEKMHIGYIKHKGTKLSKLGEIYIDALKNYENKVL | not soluble |
| MEFTAEQLSQYNGTDESKPIYVAIKGRVFDVTTGKSFYGSGGDYSMFAGKDASRALGKMSKNEEDVSPSLEGLTEKEINTLNDWETKFEAKYPVVGRVVS | soluble |
| MSLVMSGEKMKVIIVEDEFLAQQELSWLINTHSQMEIVGSFDDGLDVLKFLQHNKVDAIFLDINIPSLDGVLLAQNISQFAHKPFIVFITAWKEHAVEAFELEAFDYILKPYQESRIINMLQKLTTAWEQQNNAAEGHHHHHH | soluble |
| MLELKPPLVLLSGPAGFGEYLKLMDHRYVGGVLLKTVTLHPKEGNPTPRMADSDFYVINRIGLENPGIHAFVENIPELPVPMIASLGGDSFEEYLEVARVFKKVADRFYAVEFNFSCPNVKEGGLSIVKNAEEWKKLLNTLRKELPDSFLIAKVGVEGIFVEDAAEFVMKTGWDGITLVNTVRGLHFEKDTMILGGLSGPVLKPIALRAVYEVKKRFPELFVIASGGVYSVKDAEEFLKVGADVIGVGSALFKDPGVVEEIGKYLLEVKR | soluble |
| MGSDKIHHHHHHMNELTNKLQQVMVPKAALIAYEYRENRYGNGMHYLELHPINDRGRMEAAMPVTYEFMDSLVESYTDDRRNVPHGKIPANMLWCDTRKGHERYIWYNPPGKRRMFFAGSLNIPDGTFHVPGVIYKVSGDRLDIFSYKGEKPAENSPLFLAPFFNVTGSSVCLGNAALTPPEDMTFSKLLEYWEKRFWLSEFSHLGGSRNPTGSNLVSVTEKARANPFDENELKPMSKQLKDLLA | not soluble |
| MGSDKIHHHHHHMDIKQLQYLCNLEKERHFGRAAEASFVSQPTLSMRLKNLERELDLALINRGNNFEGFTAEGERVLAWAREIVSVYQGLKLEVASLKRGVSGVLRIGAVPQSSIALSSLLAAVNKEYPQLDFQISLFSADQLLEALNAHSVDVGIGFFEFSTLQELHFQASPLTEQGVDLLFHPHHFPQLVGDAPLALDALSDVPLCLAEASRYFRRYLDSHFREMGVSPWVKVESASVLQLIQSVYVGLGCGIVPHGSLIPEMTPALTLRPLQFPPMRRQPAVVIAQAGRATALAQNFFDVAQEWLQAQS | not soluble |
| MHGVDEDDLERQRIEKIKEVQEAVAKLTGAKFQKLENLQRMERMLNKEIELLQNATRKALETHLVTCNYAFYKSIIDEVEEMENATAVLKTFKRDNVSVTVDIVMKEPNVWIKLVNRPAKTVLIEYRDGKRNGDVIAQIKQHLFVSRRFNRPQIRIYFRNGVLAEMAQKLIRHGIVVIGEHVDKSDPSLRGKWNEELIERLGEEEDSDWDEVDEDAASIPTLPSSQSQSESTLPRLNLDISAVMLLVSNMCEPGGVNYQFKEEMINKHVECERLKPAKAEVLEKLKGHHLIMCELAYRRVAEIVKNVGGPTEKKRFEELSKTIERVQDQPSDEIGRVVKLRNIKGITSITKRVFSCAEVTKTTTVTANQKFLTHSRAKHIYFDVIEIPPRPLTEQKEATAKVI | not soluble |
| GGHTVPKPFNLSKGKRKHEEASDYVSTAEQVIAFYKRTPARYHLRSRQREMEGPSPVKMIKTKLTNPKTPLLQTKGRHRPV | soluble |
| MSLSDKDKRRLEYKELAKESKAKSKMLAASQGKGLVAKIAIGSALGNIIGNAMSKAAGGLLGFAKKAVEEKSKTNRAKLLNSAFFEKDERNTIMGTLKGMKGFERDLEKEEFLNQASVFKGTLRDLGMLNLTNLKKAVEFSAALKSSGAMSGEDAVKAVNSLLSGEGDELFDLLKKSGVGDKYIEDAKKAWQSGAEVDLESRITMLVEMFKDFKSFGITKKADTKEEIDSNLASAEQTLSNLTTTVLDPLLKFIKMVTGLSEGHHHHHH | soluble |
